Assay results: patent US9731036 (dated 2017)
Where a chain is given by its changes, count along the chain named. Numbers in names are those of the source. Each block holds one molecule with its values, some of them ahead of it.

T1: CEACAM1 protein (CD66a), whole, on cells (human, UniProt P13688 35-526)
T1 construct: whole, on cells; also called CCM1
T1 sequence (looked up): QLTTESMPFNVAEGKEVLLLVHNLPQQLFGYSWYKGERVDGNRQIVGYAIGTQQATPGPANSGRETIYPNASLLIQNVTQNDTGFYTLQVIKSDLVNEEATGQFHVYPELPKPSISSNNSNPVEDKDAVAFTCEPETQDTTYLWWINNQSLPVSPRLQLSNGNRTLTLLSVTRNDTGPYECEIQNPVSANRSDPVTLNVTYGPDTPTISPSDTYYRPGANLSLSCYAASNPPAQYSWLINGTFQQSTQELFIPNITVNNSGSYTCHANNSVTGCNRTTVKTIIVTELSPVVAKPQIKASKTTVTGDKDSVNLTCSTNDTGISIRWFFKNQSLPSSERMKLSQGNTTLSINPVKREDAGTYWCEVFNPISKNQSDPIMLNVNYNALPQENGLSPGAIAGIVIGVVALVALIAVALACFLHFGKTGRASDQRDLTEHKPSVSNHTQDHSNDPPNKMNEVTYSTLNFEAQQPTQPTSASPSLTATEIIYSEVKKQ

T2: CCM1-RQ43,44SL (CEACAM1 with S and L at positions 43 and 44 instead of R and Q) (human, UniProt P13688 35-526)
T2 construct: whole, on cells; also called CEACAM 1-RQ43,44SL
T2 sequence (looked up): T1 sequence (looked up) with R43S, Q44L

T3: CEACAM6 protein, whole, on 721.221 cells (human, UniProt P40199 35-320, GPI-anchored to the cell membrane)
T3 construct: whole, on cells; also called CCM6; CD66c
T3 sequence (looked up): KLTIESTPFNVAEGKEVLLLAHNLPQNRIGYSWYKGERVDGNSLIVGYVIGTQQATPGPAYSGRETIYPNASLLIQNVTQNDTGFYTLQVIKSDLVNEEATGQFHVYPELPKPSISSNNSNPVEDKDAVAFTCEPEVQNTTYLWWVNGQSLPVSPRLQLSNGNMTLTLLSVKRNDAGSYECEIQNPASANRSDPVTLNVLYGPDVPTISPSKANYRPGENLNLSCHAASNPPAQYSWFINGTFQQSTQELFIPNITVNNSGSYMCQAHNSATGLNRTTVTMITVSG

T4: CCM1-Q44L (CEACAM1 with 44Q changed to 44L) (human, UniProt P13688 35-526)
T4 construct: whole, on cells; also called CEACAM1-Q44L
T4 sequence (looked up): T1 sequence (looked up) with Q44L

T5: CCM1-R43A (CEACAM1 with 43R changed to 43A) (human, UniProt P13688 35-526)
T5 construct: whole, on cells; Expression lower than that of the other transfectants; also called CEACAM1-R43A
T5 sequence (looked up): T1 sequence (looked up) with R43A

B1: CD99-Ig fusion protein (control) (Fc fusion, UniProt P14209 23-122, looked up)
chain: DGGFDLSDALPDNENKKPTAIPKKPSAGDDFDLGDAVVDGENDDPRPPNPPKPMPNPNPNHPSSSGSFSDADLADGVSGGEGKGGSDGGGSHRKEGEEAD
notes: extracellular domain; Made in COS-7 cells, purified on protein G; construct described elsewhere; also called control CD99-Ig; not shown: human IgG1 Fc portion
B2: CEACAM1-Ig fusion protein (extracellular portion of CEACAM1 fused to the Fc portion of human IgG1) (Fc fusion, UniProt P13688 35-428, looked up)
chain: QLTTESMPFNVAEGKEVLLLVHNLPQQLFGYSWYKGERVDGNRQIVGYAIGTQQATPGPANSGRETIYPNASLLIQNVTQNDTGFYTLQVIKSDLVNEEATGQFHVYPELPKPSISSNNSNPVEDKDAVAFTCEPETQDTTYLWWINNQSLPVSPRLQLSNGNRTLTLLSVTRNDTGPYECEIQNPVSANRSDPVTLNVTYGPDTPTISPSDTYYRPGANLSLSCYAASNPPAQYSWLINGTFQQSTQELFIPNITVNNSGSYTCHANNSVTGCNRTTVKTIIVTELSPVVAKPQIKASKTTVTGDKDSVNLTCSTNDTGISIRWFFKNQSLPSSERMKLSQGNTTLSINPVKREDAGTYWCEVFNPISKNQSDPIMLNVNYNALPQENGLSPG
notes: extracellular domain; Made in COS-7 cells, purified on protein G. A silent nucleotide change (A885G, glycine 281 unchanged) removes a BamHI site; also called CCM1-Ig; soluble CEACAM1-Ig; not shown: Fc portion of human IgG1
B3: CCM6-TailCCM1 (entire extracellular portion of CEACAM6 fused to the transmembrane and tail portions of CEACAM1) (receptor, human, UniProt P40199 35-320, looked up)
chain: KLTIESTPFNVAEGKEVLLLAHNLPQNRIGYSWYKGERVDGNSLIVGYVIGTQQATPGPAYSGRETIYPNASLLIQNVTQNDTGFYTLQVIKSDLVNEEATGQFHVYPELPKPSISSNNSNPVEDKDAVAFTCEPEVQNTTYLWWVNGQSLPVSPRLQLSNGNMTLTLLSVKRNDAGSYECEIQNPASANRSDPVTLNVLYGPDVPTISPSKANYRPGENLNLSCHAASNPPAQYSWFINGTFQQSTQELFIPNITVNNSGSYMCQAHNSATGLNRTTVTMITVSGAIAGIVIGVVALVALIAVALACFLHFGKTGRASDQRDLTEHKPSVSNHTQDHSNDPPNKMNEVTYSTLNFEAQQPTQPTSASPSLTATEIIYSEVKKQ
notes: extracellular domain;domain: transmembrane and tail portions
B4: CCM6-SL43,44RQ (CEACAM6 with R and Q at positions 43 and 44 instead of S and L) (receptor, human, UniProt P40199 35-320, looked up)
chain: T3 sequence (looked up) with S43R, L44Q
notes: whole, on cells; also called CEACAM6-SL43,44RQ
B5: CCM6-S43R (CEACAM6 with 43S changed to 43R) (receptor, human, UniProt P40199 35-320, looked up)
chain: T3 sequence (looked up) with S43R
notes: whole, on cells; also called CEACAM6-S43R
B6: CCM6-L44Q (CEACAM6 with 44L changed to 44Q) (receptor, human, UniProt P40199 35-320, looked up)
chain: T3 sequence (looked up) with L44Q
notes: whole, on cells; also called CEACAM6-L44Q

Columns and labels:
[1] = biological target: T1, CEACAM1 protein (CD66a), whole, on cells; experiment: cell-based or functional assay
[2] = biological target: T1, CEACAM1 protein (CD66a), whole, on cells; experiment: flow cytometry on 721.221 transfectants
Excerpt: (§1) The staining of the secondary reagent FITC-conjugated goat anti-mouse F(ab_)2 of each cell type was used as background (_). The y-axis indicates the median fluorescence intensity (MFI). […] The y-axis indicates the median fluorescence intensity (MFI). […] The E:T cell ratio was 2:1.
(§2) Specificity of CEACAM1 Binding to CEACAM6 is Controlled by the Presence of Both 43R and 44Q Residues To determine whether both residues are required for binding, the amino acid residues in positions 43 and 44 in CEACAM1 (contains 43R44Q) and CEACAM6 (contains 43S44L) were mutated. Using site-directed mutagenesis in the CEACAM1, the 43R residue was changed to 43A (CCM1-R43A) and the 44Q residue was changed to 44L (CCM1-Q44L). In CEACAM6, the 43S was changed to 43R (CCM6-S43R) and 44L was changed to 44Q (CCM6-L44Q). All mutants were generated as described in Materials and Methods and stably transfected into 0.221 cells. The expression level was monitored by Kat4c mAb, and conformation was monitored by 5F4 mAb (FIG. 7A). […] Similar results were obtained when both 44Q and 43R residues in CEACAM1 were mutated (FIG. 5).

[3] = biological target: T2, CCM1-RQ43,44SL (CEACAM1 with S and L at …); experiment: flow cytometry on 721.221 transfectants
Excerpt: as §1, §2

[4] = biological target: T3, CEACAM6 protein, whole, on 721.221 cells; experiment: flow cytometry on 721.221 transfectants
Excerpt: as §1, §2

[5] = biological target: B4; experiment: flow cytometry on 721.221 transfectants
Excerpt: as §1, §2

[6] = biological target: T4, CCM1-Q44L (CEACAM1 with 44Q changed to …); experiment: flow cytometry on 721.221 transfectants
Excerpt: as §1, §2

[7] = biological target: T5, CCM1-R43A (CEACAM1 with 43R changed to …); experiment: flow cytometry on 721.221 transfectants
Excerpt: as §1, §2

[8] = biological target: B2; experiment: flow cytometry on 721.221 transfectants
Excerpt: as §1, §2

- intracellular IFN-gamma staining of the NKT clone after cross-linking with Kat4c (fold above background) [1]: 4.5
Molecule: mAb Kat4c (DakoCytomation), directed against CEACAM1, -5, -6, and -8 (antibody)

Molecule: B1
- binding result [2]: no binding
- binding result [3]: no binding
- binding result [4]: no binding
- binding result [5]: no binding

Molecule: B2
- binding result [3]: no binding
- binding result [6]: no binding
- binding result [7]: no binding

Molecule: B3
- binding result [8]: no binding

Molecule: B4
- binding result [8]: binds

Molecule: B5
- binding result [8]: no binding

Molecule: B6
- binding result [8]: no binding
